According to US20110091971A1, “Differentiation of Pluripotent Stem Cells” (priority 2008, published 2011):

Tested on: H1 or H9 human embryonic stem cells
Test: Activin A bioassay: differentiation of human embryonic stem cells to definitive endoderm, cell number and SOX17 intensity by high content analysis (96-well, four days);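 on Cell Number average: Raw total cell count per well from high content imaging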;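 on Sox 17 Intensity average: total fluorescence of the cell multiplied by cell area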
Assay type: cell-based
Method in brief: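 Read-out was cell count and integrated SOX17 immunofluorescence by high-content imaging, with each well divided by the mean of the 100 ng/ml activin A control. Over the four-day culture, test samples were given in DMEM:F12 with 0.5% FCS plus 20 ng/ml Wnt3a for the first two days and in 2% FCS alone for the last two. Cells were H1 or H9 hESC clusters grown on Matrigel.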

[1] = supernatant concentration 10x, assay dilution 1:20, assay plates #007, #009, #010
[2] = supernatant concentration 10x, assay dilution 1:20, control = R&D Sys Activin A 100 ng/ml on same plate
[3] = supernatant concentration 50x, assay dilution 1:20, assay plates #008, #009
[4] = supernatant concentration 50x, assay dilution 1:20, control = R&D Sys Activin A 100 ng/ml on same plate
[5] = concentrated supernatant (10x; ACTD3 4x), assay dilution 1:20
[6] = supernatant concentration 1x, assay dilution 1:20
[7] = supernatant concentration 10x, assay dilution 1:20
[8] = supernatant concentration 10x, assay dilution 1:40

| Molecule | Cell Number average [1] | Sox 17 Intensity average [1] | Sox 17 Intensity % of control [2] | Cell Number average [3] | Sox 17 Intensity average [3] | Sox 17 Intensity % of control [4] | Cell Number average [5] | Sox 17 Intensity average [5] | Sox 17 Intensity % of control (concentrated supernatant (10x; ACTD3 4x), assay dilution 1:20, control = R&D Sys Activin A 100 ng/ml) | Cell Number average [6] | Sox 17 Intensity average [6] | Sox 17 Intensity % of control (supernatant concentration 1x, assay dilution 1:20, control = R&D Sys Activin A 100 ng/ml on same plate) | Cell Number average [7] | Sox 17 Intensity average [7] | Cell Number average [8] | Sox 17 Intensity average [8] | Sox 17 Intensity % of control (supernatant concentration 10x, assay dilution 1:40, control = R&D Sys Activin A 100 ng/ml on same plate) |
| --- | --- | --- | --- | --- | --- | --- | --- | --- | --- | --- | --- | --- | --- | --- | --- | --- | --- |
| ACTN58: activin A variant peptide, SEQ ID 59 (protein) GLECDGKVNICCKKQSFGQTKDIGWNDWIIAPSGYHGGGCTGECPSHIAGTSGSSLSFHSTVINHYRMRGHSPWANLKSCCSPTKLRPMSMLYYDDGQNIIKKDIQNMKVEECGCT | 11078 | 6.70E+05 | 3.0% | 13214 | 3.78E+06 | 6.8% |  |  |  |  |  |  |  |  |  |  |  |
| ACTN73: activin A variant peptide, SEQ ID 74 (protein) GLECDGKVNICCKKQSFGQAKDIGWNDWIIAPSGYHGGGCSGECPSHIAGTSGSSLSFHSTVINHYRMRGHSPFANLKSCCSPTKLRPMSMLYYDDGQNIIKKDIQGMVVEECGCT | 10569 | 8.27E+05 | 3.7% | 16351 | 3.13E+06 | 5.7% |  |  |  |  |  |  |  |  |  |  |  |
| ACTN80: activin A variant peptide, SEQ ID 81 (protein) GLECDGKVNICCKKQSFGQTKDIGWNDWIIAPSGYHGGGCSGECPSHIAGTSGSSLSFHSTVINHYRMRGHSPWANLKSCCAPTKLRPMSMLYYDDGQNIIKKDIQNMKVEECGCV | 9898 | 4.08E+05 | 1.8% | 14686 | 3.52E+06 | 6.4% |  |  |  |  |  |  |  |  |  |  |  |
| ACTN67: activin A variant peptide, SEQ ID 68 (protein) GLECDGKVNICCKKQSFGQTKDIGWNDWIIAPSGYHGGGCSGECPSHIAGTSGSSLSFHSTVINHYRMRGHSPWANLKSCCSPTKLRPMSMLYYDDGQNIIKKDIQNMKVEECGCT | 12653 | 4.44E+05 | 2.0% | 14821 | 3.50E+06 | 6.3% |  |  |  |  |  |  |  |  |  |  |  |
| ACTN66: activin A variant peptide, SEQ ID 67 (protein) GLECDGKVNICCKKQMFGQAKDIGWNDWIIAPSGYHGGGCTGECPSHIAGTSGSSLSFHSTVINHYRMRGHSPWANLKSCCSPTKLRPMSMLYYDDGQNIIKKDIQNMVVEECGCT | 13360 | 4.84E+05 | 2.2% | 16460 | 3.39E+06 | 6.1% |  |  |  |  |  |  |  |  |  |  |  |
| ACTN68: activin A variant peptide, SEQ ID 69 (protein) GLECDGKVNICCKKQSFGKAKDIGWNDWIIAPSGYHGGGCTGECPSHIAGTSGSSLSFHSTVINHYRMRGHSPFANLKSCCSPTKLRPMSMLYYDDGQNIIKKDIQGMKVEECGCT | 13395 | 1.43E+06 | 6.5% | 15926 | 1.83E+06 | 3.3% |  |  |  |  |  |  |  |  |  |  |  |
| ACTN70: activin A variant peptide, SEQ ID 71 (protein) GLECDGKVNICCKKQLFGQAKDIGWNDWIIAPSGYHGGGCSGECPSHIAGTSGSSLSFHSTVINHYRMRGHSPVANLKSCCSPTKLRPMSMLYYDDGQNIIKKDIQGMVVEECGCT | 12551 | 9.67E+05 | 4.4% | 16071 | 3.20E+06 | 5.8% |  |  |  |  |  |  |  |  |  |  |  |
| ACTN31: activin A variant peptide, SEQ ID 32 (protein) GLECDGKVNTCCKKQLFVSFKDIGWNDWIIAPSGYHANHCSGKCPSHIAGTSGSSLSFHSTVINHYRMRGHSPFSDMGSCCIPTKLRPMSMLYYDDGQNIIKKDIQNMIVEECGCS | 10450 | 5.44E+07 | 246.3% | 11148 | 1.49E+08 | 269.7% |  |  |  |  |  |  |  |  |  |  |  |
| ACTN37: activin A variant peptide, SEQ ID 38 (protein) GLECDGKVNLCCKKQDFVSFKDIGWNDWIIAPSGYHANRCSGKCPSHIAGTSGSSLSFHSTVINHYRMRGHSPFSDMGACCIPTKLRPMSMLYYDDGQNIIKKDIQNMIVEECGCS | 3957 | 1.35E+06 | 6.1% | 2902 | 5.89E+06 | 10.6% |  |  |  |  |  |  |  |  |  |  |  |
| ACTN34: activin A variant peptide, SEQ ID 35 (protein) GLECDGKVNYCCKKQLFVSFKDIGWNDWIIAPSGYHANHCTGKCPSHIAGTSGSSLSFHSTVINHYRMRGHSPFSDLGSCCVPTKLRPMSMLYYDDGQNIIKKDIQNMIVEECGCS | 10063 | 5.69E+07 | 257.4% | 12163 | 1.47E+08 | 266.9% | 11794 | 8.08E+07 | 185% |  |  |  |  |  |  |  |  |
| ACTN33: activin A variant peptide, SEQ ID 34 (protein) GLECDGKVNLCCKKQNFVSFKDIGWNDWIIAPSGYHANECMGKCPSHIAGTSGSSLSFHSTVINHYRMRGHSPFSDMGACCIPTKLRPMSMLYYDDGQNIIKKDIQNMIVEECGCS | 3588 | 2.15E+06 | 9.7% | 3383 | 6.50E+06 | 11.8% |  |  |  |  |  |  |  |  |  |  |  |
| ACTN2: activin A variant peptide, SEQ ID 3 (protein) GLECDGKVNLCCKKQNFVSFKDIGWNDWIIAPSGYHANECTGKCPSHIAGTSGSSLSFHSTVINHYRMRGHSPFSDLGSCCIPTKLRPMSMLYYDDGQNIIKKDIQNMIVEECGCS |  |  | 12.5% |  |  |  |  |  |  | 4057 | 1.756E+07 | 9.5% | 2965 | 2.299E+07 | 2232 | 1.280E+07 | 7.0% |
